# B1: Flavonifractor plautii GalNAcDeacetylase (FpGalNAcDeAc), full length, SEQ ID NO: 2, 4, 5 (Flavonifractor plautii) (protein)
# chain: MGHHHHHHHHHHSSGADSSESALNKAPGYQDFPAYYSDSAHADDQVTHPDVVVLEEPWNGYRYWAVYTPNVMRISIYENPSIVASSDGVHWVEPEGLSNPIEPQPPSTRYHNCDADMVYNAEYDAMMAYWNWADDQGGGVGAEVRLRISYDGVHWGVPVTYDEMTRVWSKPTSDAERQVADGEDDFITAIASPDRYDMLSPTIVYDDFRDVFILWANNTGDVGYQNGQANFVEMRYSDDGITWGEPVRVNGFLGLDENGQQLAPWHQDVQYVPDLKEFVCISQCFAGRNPDGSVLHLTTSKDGVNWEQVGTKPLLSPGPDGSWDDFQIYRSSFYYEPGSSAGDGTMRVWYSALQKDTNNKMVADSSGNLTIQAKSEDDRIWRIGYAENSFVEMMRVLLDDPGYTTPALVSGNSLMLSAETTSLPTGDVMKLETSFAPVDTSDQVVKYTSSDPDVATVDEFGTITGVSVGSARIMAETREGLSDDLEIAVVENPYTLIPQSNMTATATSVYGGTTEGPASNVLDGNVRTIWHTNYAPKDELPQSITVSFDQPYTVGRFVYTPRQNGTNGIISEYELYAIHQDGSKDLVASGSDWALDAKDKTVSFAPVEAVGLELKAIAGAGGFGTAAELNVYAYGPIEPAPVYVPVDDRDASLVFTGAWNSDSNGSFYEGTARYTNEIGASVEFTFVGTAIRWYGQNDVNFGAAEVYVDGVLAGEVNVYGPAAAQQLLFEADGLAYGKHTIRIVCVSPVVDFDYFSYVGE
# What was measured:
# Experiment in all cases: Kinetic parameters of FpGalNAcDeAc full length (coupled fluorescence assay, MU release)
# Assay type in all cases: biochemical, Flavonifractor plautii
# Conditions in all cases: other: 100 mM NaH2PO4, pH 7.4, 37° C.
# [1] = substrate: CC(=O)N[C@H]1[C@H](Oc2ccc3c(C)cc(=O)oc3c2)O[C@H](CO)[C@@H](O[C@@H]2O[C@H](CO)[C@H](O)[C@H](O[C@H]3O[C@H](CO)[C@H](O)[C@H](O)[C@H]3NC(C)=O)[C@H]2O[C@@H]2O[C@@H](C)[C@@H](O)[C@@H](O)[C@@H]2O)[C@@H]1O
# Description: (§1) All kinetic assays utilizing 4-methylumbelliferone as leaving group were performed through measurement of fluorescence. To avoid measurement errors based on the inner filter effect (Palmier 2007) standard curves were used to validate the linear range of the fluorophore.
# (§2) Michaelis-Menten parameters were determined for A antigen subtype 1penta-MU in 100 mM NaH2PO4, pH 7.4 at 37° C. using the coupled assays described previously (Kwan 2015). The assay was modified to allow detection of cleavage of the subtype 1 (and later 4), by use of BgaC (Jeong 2009) instead of BgaA (Singh 2014) as β-galactosidase. In addition, since A antigen subtype 1penta-MU contains an additional galactose, the concentration of BgaC was increased to 0.2 mg/mL to compensate for its need to cleave both the Gal-β-1,3-B-GlcNAc-β-1,3-Gal-β-MU and Gal-β-MU. Further, FpGalactosaminidase was included to allow the cleavage of the galactosamine-containing intermediate. Reaction setup in 100 μl was 3 nM FpGalNacDeacetylase (4.52 nM FpGalNacDeAc_D1ext, 3.55 nM FpGalNacDeAc_D1+2) and 0.01 mg/mL FpGalactosaminidase, 0.1 mg/mL SpHex, AfcA, 0.2 mg/mL BgaC and varying concentrations of substrate (5 μM-2.5 mM). The reactions were run as a series of four with controls (no FpGalNacDeacetylase) as duplicates. The fluorescence signal (365/435 nm) resulting from MU release by hydrolysis was monitored on a Synergy H1™ plate reader (BioTek™) and converted to concentration using MU standard concentration curves determined under identical reaction conditions. Initial rates (μM/s) were determined and plotted in Grafit 7.0 to determine the kinetic parameters.
# (§3) kcat/KM parameter were determined for A antigen subtype 1/2/4tetra-MU at pH 7.4 at 37° C. Reactions (total volume of 100 μL) were performed in black 96-plate wells and as coupled assays in 100 mM NaH2PO4 (pH 7.4) with 12 nM FpGalNAcDeacetylase 0.1 mg/mL SpHex, BgaC (BgaA for subtype II), AfcA, at varying concentrations of substrate (25 μM, 20 μM, 15 μM, 10 μM, 7.5 μM, 5 μM). The reactions were run as a series of four with controls (no FpGalNAcDeacetylase) as duplicates. The fluorescence signal (365/435 nm) resulting from MU release by hydrolysis was monitored on a Synergy H1™ plate reader (BioTek™) and converted to concentration using MU standard concentration curves determined under identical reaction conditions. Initial rates (μM/s) were determined and plotted in Grafit™ 7.0 to determine the kcat/KM (s^−1*mM^−1) parameters.
# [2] = substrate: CC(=O)N[C@H]1[C@@H](O[C@H]2[C@@H](O)[C@@H](CO)O[C@@H](O[C@H]3[C@H](O)[C@@H](CO)O[C@@H](Oc4ccc5c(C)cc(=O)oc5c4)[C@@H]3NC(C)=O)[C@@H]2O[C@@H]2O[C@@H](C)[C@@H](O)[C@@H](O)[C@@H]2O)O[C@H](CO)[C@H](O)[C@@H]1O
# Description: as §1, §2, §3
# [3] = substrate: CC(=O)N[C@H]1[C@@H](O[C@H]2[C@@H](O)[C@@H](CO)O[C@@H](O[C@H]3[C@H](O)[C@@H](CO)O[C@@H](O[C@H]4[C@@H](O)[C@@H](CO)O[C@@H](Oc5ccc6c(C)cc(=O)oc6c5)[C@@H]4O)[C@@H]3NC(C)=O)[C@@H]2O[C@@H]2O[C@@H](C)[C@@H](O)[C@@H](O)[C@@H]2O)O[C@H](CO)[C@H](O)[C@@H]1O
# Description: as §1, §2, §3
# [4] = substrate: CC(=O)N[C@H]1[C@@H](O[C@H]2[C@@H](O)[C@@H](CO)O[C@@H](O[C@H]3[C@@H](O)[C@@H](CO)O[C@@H](Oc4ccc5c(C)cc(=O)oc5c4)[C@@H]3NC(C)=O)[C@@H]2O[C@@H]2O[C@@H](C)[C@@H](O)[C@@H](O)[C@@H]2O)O[C@H](CO)[C@H](O)[C@@H]1O
# Description: as §1, §2, §3
protein,measurement,setting,value
B1,kcat/Km,[1],23370 ± 710 M⁻¹ s⁻¹
same,kcat/Km,[2],23490 ± 630 M⁻¹ s⁻¹
same,Km,[3],340 ± 35 µM
same,kcat,[3],4.86 s⁻¹
same,kcat/Km,[3],14280 M⁻¹ s⁻¹
same,kcat/Km,[4],33270 ± 2080 M⁻¹ s⁻¹
